Tests used:
Hla蛋白 [1] = molecular target: T1, Hla蛋白 (Staphylococcus aureus)
Hla蛋白 [2] = molecular target: T1, Hla蛋白; remark: listed apart in the source

T1 sequence (Q2G1X0 27-319 limits assumed): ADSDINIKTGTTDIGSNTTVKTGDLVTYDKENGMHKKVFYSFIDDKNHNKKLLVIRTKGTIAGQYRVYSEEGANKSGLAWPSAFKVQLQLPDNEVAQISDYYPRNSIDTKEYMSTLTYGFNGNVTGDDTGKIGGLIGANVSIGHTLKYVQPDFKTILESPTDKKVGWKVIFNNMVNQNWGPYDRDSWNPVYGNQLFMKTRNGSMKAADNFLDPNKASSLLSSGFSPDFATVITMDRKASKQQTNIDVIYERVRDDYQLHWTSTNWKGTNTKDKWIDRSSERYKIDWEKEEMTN

B1: AAH-1抗体 (antibody, V domains shown)
VH: QMQLVQSGAEIRRPGSLVKVSCQASGGSFKNFALNWVRQAPGLGLQWMGSITPFLNVPTYAQQFQGRVTMSTDTSTSTAYMVLRRLTSDDTAVYYCARGNSLLDYWGQGTLVTVSS
VL: EIVLTQSPATLSVSPGDGATLSCRASQSVSGNLAWYQKKPGQAPRLLIYDTSIRAAGVPPRFSGSGSGTEFTLTISSLQSEDFAVYYCQQYHNLPPLTFGPGTKLEIK
Kd (Hla蛋白 [1]): 1.92 nM | koff (Hla蛋白 [1]): 0.000255 s⁻¹ | kon (Hla蛋白 [1]): 133000 M⁻¹ s⁻¹ | EC50 (Hla蛋白 [2]): 0.075 µg/mL

Source: patent CN109384844A (INST OF BASIC MEDICAL SCIENCES THE ACADEMY OF MILITARY …, dated 2019)
